Measurements as given in article PMC3365061.

Biological target: K5,83R-JMD (mouse)
Test: co-IP; RFP chimeras immunoprecipitated with rabbit polyclonal anti-RFP on Protein A beads (Figure 2C also with E2 antibody to the E-cadherin cytoplasmic domain) from MDCK extracts, 0.1% Triton X-100 in CSK buffer (50 mM NaCl, 300 mM sucrose, 10 mM Pipes pH 6.8, 3 mM MgCl2), 4°C; stable or transient expression; with or without 10 µM MG-132 for 4 h, 10 mM NEM in the extraction buffer, Src-GFP or Hakai-FLAG expression; blots for p120-catenin and tubulin

With p120-catenin (natural protein) as the substance, how does the fold amount co-immunoprecipitated, against WT-JMD read?
The fold amount co-immunoprecipitated, against WT-JMD was 10 fold.

What about the fold increase of the amount co-immunoprecipitated upon proteasome inhibition of the same substance?
Its fold increase of the amount co-immunoprecipitated upon proteasome inhibition is 0.4 fold.
